The experiment deals with Rabbit (Oryctolagus cuniculus) 80S ribosome (rabbit (endogenous in rabbit reticulocyte lysate)) (UniProt G1U0Q2).

In the case of “Refolded angiogenin(K54E) (from UniProt P03950 25-147) (enzyme)”, the IC50 of inhibition of translation of nanoluciferase mRNA in RRL was found to be 440 nM.

“Refolded WT human angiogenin (from UniProt P03950 25-147) (enzyme)” came in with an IC50 of inhibition of translation of nanoluciferase mRNA in RRL of 33 nM.

These data come from paper PMC11912008.
